Assay results: the DeepSol protein solubility set

Assay: soluble on expression in E. coli; label from the status in PepcDB or PDB records

Sequence	soluble on expression in E. coli
MKIVEVKHPLVKHKLGLMREQDISTKRFRELASEVGSLLTYEATADLETEKVTIEGWNGPVEIDQIKGKKITVVPILRAGLGMMDGVLENVPSARISVVGMYRNEETLEPVPYFQKLVSNIDERMALIVDPMLATGGSVIATIDLLKKAGCSSIKVLVLVAAPEGIAALEKAHPDVELYTASIDQGLNEHGYIIPGLGDAGDKIFGTK	soluble
MSLDGTVLVADDDRTIRTVLTQALTRAGCKVHATSSLTTLMRWVAEGKGDVVISDVVMPDGNGLEMLPKIAQDRPGLPVIVISAQNTIMTAIQAAEAEAYDYLPKPFDLPDLMKRTARALEQKRRTVSSEPREEGAERPDELPLVGRTPAMQALYRLVAKVMNTDLPVMISGESGTGKSLIARTIHDFSDRRTLPFISVTASDLMDLEGPARVLARVKGGTLLIDEIADIGDELQGRIVRMMDAPGDYVPRFMATSQGDPARAMEAGKLRRDLYYRLCGAPIHVPALRERVDDIPLLTEYFLAKAERDGAPKRWLGAGAAELFRIYSWPGNVRQLENAVRRLSLISRAEEISRTEVEQVLGNQPELEPALGGRGDSEKLSASVARHLQRYFDLHGNVLPPPGLYQRILREVEAPLIEIALEASGGNQAKCADLLGINRNTLRKKITDLDIEVTREGHHHHHH	soluble
MGSDKIHHHHHHMRKVGMTTTIPVEVVYAAGLIPVDLNNIFVTHENPQSLVEEAEMAGYPRNLCAWIKGLYSTILQNDDIQTLIAVTQGDCSNTHALMETLEMAGVNVIPFAFPFDRDYDLLKLQMEKLINTLGTTWDEVYHAKKRLDAIRSKVHELDRLTWQGDRVRGWDNHLYQVCCSDLEGDPEDFGRRVDQYLAELPAKEPIKAKVRLAYIGVPPIMDDLYDYVEERGARVVFNEVQRQFTMPFATDDIVEQYRIYSYPYGIFYRLQDISRELEQRQVDGVIHYAQSFCYRQIEDLIVRQKLKYPILTLEGDKPNKLDARTRMRLDAFLDMLR	not soluble
SDENNGLLLLELNPPNPWDLQPRSPEELAFGEVQITYLTHACMDLKLGDKRMVFDPWLIGPAFARGWWLLHEPPSDWLERLCQADLIYISHLHSDHLSYPTLKKLAGRRPDIPIYVGNTERPVFWNLNQSGVQLTNINVVPFGIWQQVDKNLRFMILMDGVHPEMDTCIIVEYKGHKILNIVDCTRPNGGRLPMKVALMMSDFAGGASGFPMTFSGGKFTEEWKAQFIKTERKKLLNYKARLVKNLQPRIYCPFAGYFVESHPSDKYIKETNTKNDPNELNNLIKKNSDVITWTPRPGATLDLGRMLKDRTDSKGIIEPPEGTKIYKDSWDFEPYLEILNAALGDEIFLHSSWIKEYFTWAGFKDYNLVVRMIETDEDFNPFPGGYDYLVDFLDLSFPKERPQREHPYEEIHSRVDVIRHVVKNGLLWDELYIGFQTRLQRDPDIYHHLFWNHFQIKLPLTPPNWKSFLMCCEQNGPVILQECKTT	soluble
MSLRQPNPSQKKAPTGQVRIISGLWRGRKLPVHDAEGLRPTTDRVKETLFNWLAQEVPNARCLDLFAGSGGLGFECASRQANQVTMLELNPLAFQQLKTNVQSLKAENIELIHTDALAFLRQSGKPYDVVFIDPPFRQGLLQETTQLLEQNGWLAPQAMIYIECEKELPLTELPPHWHLHREKSAGQVCYREGHHHHHH	not soluble
MMSNQTVYQFIAENQNELLQLWTDTLKELSEQESYQLTDQVYENISKEYIDILLLSVKDENAAESQISELALRAVQIGLSMKFLATALAEFWKRLYTKMNDKRLPDQESTELIWQIDRFFSPINTEIFNQYSISWE	soluble
MTRVLVLGGGSGGLVAANKVKRLLGKEVEVTLVDRNTHHEFMPAYPWVAFGMREPEAIRRPLANLEKRGIRYLQATVEALDPERNRVKTTAGELSYDYLIVSLGAEALPSPAQDGHAPWSLEGALKLREALRTFKGGKVVVGVSSPYYPCPPAPYEVAGQVEFALKVKGVRDKSTVEVFHLNPAPLAGMGPVISGKVLEILKSKGIAFHGGFEPVEFAGGKVKAKDGRELSYDLLILTPPFAPNRVVRESPLAGPQGFPEVDRMTFRSPRFPNVFVIGDTVNPALMLPPAGVVAHFQGEYVAGVIASDLKGAYIGEPFNPVAMCIMDFGDNALLPQCAFDRVLAGTGMPSCGVMAVGKWVRVTKMLFEGFWFATLIELEHHHHHH	soluble
MNVKSRQQENAEATREALLESALSAFIEHGYGGVSIDAIAREARVTKGAFYHHFGSKQELLAECYERQVRTIAEDLDRVPAHVDKWAEAAALAEAFIDSVMARGKRQLSLQEVITVVGWERWKRIDSRHTLRYVGRLVDELAASGELKDYRRETLVGQLYGFLTQAAMSLRDARNKRQAANEVKAIIRDFLYSLRRG	not soluble
MMRDSPSIQGTLDAATQHALLAGRHADPFSVLGPHQAGAHTVVRVLAPGARTVMAVLPGGQRTPLLPMQPGLFENTVPGLQPGAPAAYRLCIEWEGGIQHTADPYAFGPVLD	not soluble
MAQNLPTIALLATGGTIAGSGVDASLGSYKSGELGVKELLKAIPSLNKIARIQGEQVSNIGSQDMNEEIWFKLAQRAQELLDDSRIQGVVITHGTDTLEESAYFLNLVLHSTKPVVLVGAMRNASSLSADGALNLYEAVSVAVNEKSANKGVLVVMDDTIFSVREVVKTHTTHVSTFKALNSGAIGSVYYGKTRYYMQPLRKHTTESEFSLSQLKTPLPKVDIIYTHAGMTPDLFQASLNSHAKGVVIAGVGNGNVSAGFLKAMQEASQMGVVIVRSSRVGSGGVTSGEIDDKAYGFITSDNLNPQKARVLLQLALTKTNDKAKIQEMFEEY	soluble
MGHHHHHHSHMVKDIIIASFYKFIPLNDFESLREPILTKMHEIGIKGTIILAHEGVNGGFAGNREQMNVFYDYLRSDSRFADLHFKETYDNKNPFDKAKVKLRKEIVTMGVQKVDPSYNAGTYLSPEEWHQFIQDPNVILLDTRNDYEYELGTFKNAINPDIENFREFPDYVQRNLIDKKDKKIAMFCTGGIRCEKTTAYMKELGFEHVYQLHDGILNYLESIPESESLWEGKCFVFDDRVAVDQKLDRVYPQLPQDYKYEREQK	soluble
MGSDKIHHHHHHMMAVLHRSSDIIAATICRILIPQFYSDNTVPINGNYSCIFLLSYMFPLDSPLLADLYKKYRSRLISRIARLTGCRETAADLAQDAYMRLLDQTGVACPSNPAAYLFRIGRNLAIDHQRRPDFRQHDETSFEEELPSSFSGLDQQAVYRQECEQLWTAIMELPRPVSRALVLSVIEGVSQAAIAEELGVTERTVRRYISKGMAHCQRRLRNPLPPARYDR	not soluble
MIKLVFRYSPTKTVDGFNELAFGLGDGLPWGRVKKDLQNFKARTEGTIMIMGAKTFQSLPTLLPGRSHIVVCDLARDYPVTKDGDLAHFYITWEQYITYISGGEIQVSSPNAPFETMLDQNSKVSVIGGPALLYAALPYADEVVVSRIVKRHRVNSTVQLDASFLDDISKREMVETHWYKIDEVTTLTESVYK	soluble
TQVYKAKFGTPNRGWVIIVHGLGEHSGRYSKLVSMLVNEGYAVYTFDWPGHGKSPGKRGHTSVEEAMEIIDFIIEEINDKPFLFGHSLGGLTVIRYAETRPEKIRGVIASSPALAKSPKTPSFMVALAKILGVLLPSLTLSNGIDPNLLSRNPDAVKRYIEDPLVHDRISAKLGRSIFKNMDLAHREAHKIKVPVLLLVGTGDVITPPEGARKLYGEIKVEDKEIVEFEGAYHEIFEDPEWGEEFHKKIVEWIKKH	not soluble
MGSDKIHHHHHHMKASLEQSSLPCRRFGRTGLSMPVLSLGGMRFQQSWTDLEAEVITSESQQLLKDILERAVACGFHHVETARHYGSSERQLGWALRDVLDPQRLLQSKVPPREDPKVFEAELALSFERLGCERLDLVAIHGLNLSEHLEQTLRPGGCMDVLRRWQGDGRIGHVGFSTHGPTDLIVQAIETDAFDYVNLHWYFIYQDNDPALDAAARHDLGVFIISPTDKGGHLHSPSSQLLELCAPLHPIVFNDLFCLQDPRVHTISVGAARPSDLDRHLEAVDLLQSAAELLPPVQQRLVDAAQLALGEAWWTSWQRGLPPWQESPGEINLPILLWLHNLVEAWGMEGYAKARYGLLGSGSHWFPGANAEALDADVSETALREVLVNSPWCDQIPGLLRRLRNRLGGHPQQRLTSV	not soluble
